The values that follow are results of earlier work, collected in patent US20260250369A1, “METHODS OF TREATING LIVER FIBROSIS, INFLAMMATION OR ASSOCIATED DISEASES USING AN ANGPTL4 ANTAGONIST” (Nanyang Technological University, priority 2022, published 2026).

This data set has as its target T1, human cANGPTL4 (Homo sapiens, UniProt Q9BY76).
T1 sequence (Q9BY76 186-406 limits assumed): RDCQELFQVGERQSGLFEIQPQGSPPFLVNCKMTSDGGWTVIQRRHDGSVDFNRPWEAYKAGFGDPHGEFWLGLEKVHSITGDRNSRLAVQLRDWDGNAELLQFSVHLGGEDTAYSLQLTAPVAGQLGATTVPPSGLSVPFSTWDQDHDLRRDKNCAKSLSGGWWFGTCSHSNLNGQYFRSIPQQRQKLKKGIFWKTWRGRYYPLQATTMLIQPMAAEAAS

B1: mAb11F6C4: murine monoclonal antibody directed against human cANGPTL4; heavy chain SEQ ID NO 15, light chain SEQ ID NO 16 (antibody, V domains shown)
VH: QVQLQESGPGILKPSQTLSLTCSFSGFSLSTSGMGVGWIRQPSGKGLERLAHIWWDDDKYYNPSLKSQLTISKDTSRNQVFLKIISVDTADTATYYCARKDYGSSYDYRGQGTTVTVS
VL: DIELTQSPASLAVSLGQRATISCKASQSVDYDGDSYLNRFQQKPGQPPKLLIYTASNLESGIPARFSGSGSGTDFTLNIHPVEEEDAATYYCQQSNEDPWTFGGGTKLEIKR
In the case of B1, the “Effect on mitochondrial activities and glucose regulations of ANGPTL4” value is on record as “does not affect”; the Epitope targeted result is “target an epitope that resides within the C-terminus of human ANGPTL4”.
